From patent publication US20180044415A1 (AbbVie / Abbott, published 2018)

T1: human DLL3 (immobilized human DLL3 or h293-hDLL3 cells) (human, UniProt Q9NYJ7 27-492, limits assumed)
T1 construct: the sentence says 'immobilized human DLL3 or h293-hDLL3 cells'
T1 sequence: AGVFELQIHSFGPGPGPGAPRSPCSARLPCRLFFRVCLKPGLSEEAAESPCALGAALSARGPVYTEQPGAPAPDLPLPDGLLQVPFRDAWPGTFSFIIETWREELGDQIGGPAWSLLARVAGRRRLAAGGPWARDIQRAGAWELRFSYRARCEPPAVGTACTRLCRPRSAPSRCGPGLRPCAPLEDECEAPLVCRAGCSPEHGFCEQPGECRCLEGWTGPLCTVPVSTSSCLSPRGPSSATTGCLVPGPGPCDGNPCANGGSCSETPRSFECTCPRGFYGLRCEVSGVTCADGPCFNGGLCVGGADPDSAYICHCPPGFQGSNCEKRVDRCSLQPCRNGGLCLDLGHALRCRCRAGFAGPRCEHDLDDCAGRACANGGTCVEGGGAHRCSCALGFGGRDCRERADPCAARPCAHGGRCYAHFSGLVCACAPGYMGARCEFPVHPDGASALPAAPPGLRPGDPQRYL


Molecular target: T1, human DLL3 (immobilized human DLL3 or …)
Assay: hybridoma screening on immobilized human DLL3 or on h293-hDLL3 cells

Binder | binding result
SC16.137 (antibody, V domains shown, murine mAb; variable regions only) VH: EVQLVESGGDLVKPGGSLKLSCAASGFTFSSYGMSWVRQTPDKRLEWVATISSGGSYTYYPDSVKGRFTISRDNAKNTLYLQMSSLKSEDTAMYYCARRRADAMDYWGQGTSVTVSS VL: QIVLTQSPAIMSASLGEEITLTCSASSSVSYMHWYQQKSGTSPKLLIYSTSNLASGVPSRFSGSGSGTFYSLTISSVEAEDAADYYCHQWSSYHTFGGGTKLEIKR | binds
SC16.140 (antibody, V domains shown, murine mAb; variable regions only) VH: QVQLQQSGPELVRPGASVKMSCKASGYTFTSYWMHWVKQRPGQGLEWIGMIDPSNSETRLNQKFKDKATLNVDKSSNTAYMQLSSLTSEDSAVYYCAVMDYYFDYWGQGTTLTVSS VL: DIVLTQSLASLAVSLGQRATISCRASKSVSTSGYSYMHWYQQKPGQPPKLLIYLASNLESGVPARFSGSGSGTDFTLNIHPVEDEDAATYYCQHSRELPFTFGGGTKLEIK | binds
SC16.122 (antibody, V domains shown, murine mAb; variable regions only) VH: EVQLVESGGGLVKPGGSLKLSCAASGFTFSDYYMFWVRQTPEKRLEWVATISDGGSYTYFPDSVKGRFTISRDNAQNNLYLQMSSLKSEDTAMYYCARAGTLYAMDYWGQGTSVTVSS VL: DIVMTQSQKFMSTSVGDRVSVTCKASQNVGTNVAWYQQKPGQSPKVLIYSASYRYSGVPDRFTGSGSGTDFTLTISNVQSEDLAEFFCQQYNSYPLTFGGGTKLEIK | binds
SC16.123 (antibody, V domains shown, murine mAb; variable regions only) VH: QVALKESGPGILQPSQTLSLTCSFSGFSLSTSGMGVGWIRQPSGKGLEWLAHIWWDDVKRYNPALKSRLTISKDTSSSQVFLKIASVDTADTATYYCARMEDYGSSSYFDFWGHGTTLTVSS VL: QIVLTQSPAIMSASLGERVTMTCTASSSVSSSYLHWYQQKPGSSPKLWIYSTSNLASGVPARFSGSGSGTSYSLTISSMETEDAATYYCHQYHRSPFTFGSGTKLEIK | binds
SC16.131 (antibody, V domains shown, murine mAb; variable regions only) VH: QVQLKESGPGLVAPSQSLSITCTVSGFSLTNYGVHWVRQPPGKGLEWLGVIWAGGITNYNSALMSRLSISEDNSKSQVFLKMNSLQTDDTAMYYCARNLGPYAMDYWGQGTSVTVSS VL: DIQMNQSPSSLSASLGDTITITCHVSQNINVWLSWYQQKPGNIPKLLIQKASNLHTGVPSRFSGSGSGTGFTLTISSLQPEDIATYYCQQGQSYPFTFGSGTKLEIK | binds
SC16.133 (antibody, V domains shown, murine mAb; variable regions only) VH: QVQLKESGPGLVAPSQSLSITCTVSGFSLTNYAVHWVRQSPGKGLEWLGVIWSDGSTDYNAAFISRLSISKDNSKSQVFFKMNSLQADDTAMYYCARKKGGWFPWFAYWGQGTLVTVSA VL: SIVMTQTPKFLLVSAGDRVTITCKASQSVSNDVAWYQQKPGQSPKLLIYCASNRYTGVPDRFTGSGYGTDFTFTISTVQAEDLAVYFCQQDYSSPLTFGAGTKLELK | binds
SC16.130 (antibody, V domains shown, murine mAb; variable regions only) VH: EVQLQQSGPELVKPGASVKMSCKASGYTFTSYVMHWVKQKPGQGLEWIGYINPYNDGTEYNEKFKGKATLTSDKSSSTAYMELSSLTSEDSAVYYCARGVYDGYSYFDYWGQGTTLTVSS VL: DIQLTQSPASLSASVGETVTITCRASGSIHNYLAWYQQKQGKSPQLLVYNAKTLVDGVPSRFSGSGSGTQYSLKINSLQPEDFGYYYCQHFWTTPWTFGGGTKLEIK | binds
SC16.136 (antibody, V domains shown, murine mAb; variable regions only) VH: EVQLQQSGPELVKPGASVKMSCKASGYTFTSYVMHWVKQKPGQGLEWIGYINPYNDGTKYNEKFKGKATLTSDKSSSTAYMELSSLTSEDSAVYYCARDRSGYEDYYGMDYWGQGTSVTVSS VL: DIQMTQSPASLSASVGETVTITCRASGNIHNYLAWYQQKQGKSPHLLVYNAKTLADGVPSRFSGSGSGTQYSLKINSLQPEDFGSYYCQHFWSTPWTFGGGTKLEIK | binds
SC16.135 (antibody, V domains shown, murine mAb; variable regions only) VH: QVQLQQSGAELVRPGTSVKVSCKASGYAFTNYLIEWVKQRPGQGLEWIGVINPGSGGTNSNEKFKAKATLTADKSSSTAYMQLSSLTSADSAVYFCARSDYDYAFYAMDYWGQGTSVTVSS VL: DIKMTQSPSSMYASLGERVTITCKASQDINRYLSWFQQKPGKSPKTLIYRANRLVDGVPSRFSGSGSGQDYSLTISSLEYEDMGIYYCLQYDEFPFTFGSGTKLEIK | binds
SC16.141 (antibody, V domains shown, murine mAb; variable regions only) VH: QVQLKQSGPGLVAPSQSLFITCTVSGFSLTSYEINWVRQPPGKGLEWLGVIWTGGSTNYNSALISRLSISKDNSKSLVFLKMNSLQTDDTAIYYCVRGVYAMDYWGQGTSVTVSS VL: DIKMTQSPSSMYASLGERVTITCKASQDINSYLSWFQQKPGKSPKTLIYRANRLVDGVPSRFSGSGSGQDYSLTISSLEYEDMGIYYCLQYDEFPFTFGSGTKLEIK | binds
SC16.118 (antibody, V domains shown, murine mAb; variable regions only) VH: EVQLQQSGPDLVKPGASVKISCKASGYSFTGYYMHWVKQSHGKSLEWIGRVNPNNGGTSYNQKFKGKAILTADKSSSTAYMELRSLTSEDSAVYYCARGSYDYAEGWGQGTLVTVSA VL: DIVLTQSPASLAVSLGQRATISCKASQSVDYDGDSYLTWYQQKPGQPPKLLIYAASNLESGIPARFSGSGSGTDFTLNIHPVEEEDAATYYCQQSNEDPYTFGGGTKLEIK | binds
SC16.134 (antibody, V domains shown, murine mAb; variable regions only) VH: EVQLQQSGPDLVKPGASVKISCKASGYSFTGYYMHWVKQSHGKRLEWIGRVNPNNGGTNYNQKFKGKAILTVDKSSSTAYMELRSLTSEDSAVYYCARGSYDNAEGWGQGTLVTVSA VL: DIVLTQSPASLAVSLGQRATISCKASQSVDHAGDSYMNWYQQKPGQPPKLLIYAASNLESGIPARFSGSGSGTDFTLNIHPVEEEDAATYYCQQSNEDPYTFGGGTKLEIK | binds
SC16.124 (antibody, V domains shown, murine mAb; variable regions only) VH: EVQLQQSGPELVKPGASVKMSCKASGYTFTSYVMHWVKQKPGQGLEWIGYINPYNDGTKYNEKFKGKATLTSDKSSSTAYMELSSLTSEDSAVYYCARGALYYGNYLGYFDVWGAGTTVTVSS VL: DIQMTQSPASQSASLGESVTITCLASQTIGTWLAWYQQKPGKSPQLLISAATSLADGVPSRFSGSGSGTKFSFKISSLQAEDFVSYYCQQLYSTPWTFGGGTKLEIK | binds
SC16.132 (antibody, V domains shown, murine mAb; variable regions only) VH: QVQLKESGPGLVAPSQSLSITCTVSGFSLTDYGVSWIRQPPGKGLEWLGVVWGGGSTYYNSALKSRLSITKDNSKSQVFLKMNSLQTDDTAMYYCAKQRGQYGAYWGQGTLVTVSA VL: DIQMTQSPASQSASLGESVTITCLASQTIGTWLAWYQQKPGKSPQLLIYAATSLADGVPSRFSGSGSGTKFSFKISSLQAEDFVSYYCQQLYSTPWTFGGGTKLEIK | binds
SC16.138 (antibody, V domains shown, murine mAb; variable regions only) VH: QVQLKESGPGLVAPSQSLSITCTVSGFSLTDYGVSWIRQPPGKGLEWLGVVWGGGSTYYNSALKSRLSISKDNSKSQVFLKMNSLQTDDTAMYYCAKQRGQYGAYWGQGTLVTVSA VL: DIQMTQSPASQSASLGESVTITCLASQTIGTWLAWYQQKPGKSPQLLIYSATSLADGVPSRFSGSGSGTKFSFKISSLQAEDFVSYYCQQLYSTPWTFGGGTKLEIK | binds
SC16.129 (antibody, V domains shown, murine mAb; variable regions only) VH: QVQLKESGPGLVAPSQSLSITCTVSGFSLTDYGVSWIRQPPGKGLEWLGVIWGGGSTYYNSALKSRLSISKDNSKSQVFLELNSLQTDDTAIYYCAKHYGHYAAYWGQGTLVTVSA VL: DIQMTQSPASQSASLGESVTITCLASQTIGTWLAWYQQKPGKSPQLLIYAATSLADGVPSRFSGSGSGTKFSFKISSLQAEDFVSYYCQQLYSTPYTFGGGTKLEIK | binds
SC16.121 (antibody, V domains shown, murine mAb; variable regions only) VH: EVQLVESGGGLVQPKGSLKLSCAASGFTFNTYAMNWVRQAPGKGLEWVARIRIKSNNYATYYADSVKDRFTISRDDSQNMLYLQMNNLKTEDTAVYYCVRQGYSYDWGPWFAYWGQGTLVTVSA VL: QIVLTQSPAIMSASPGEKVTITCSASSSVSYMHWFQQKPGTSPKLWIYSTSNLASGVPARFSGSGSGTSYSLTISRMEAEDAATYYCQQRSSYPPTFGGGTKLEIK | binds
